{
  "source": "patent US20170305975A1",
  "key": {"[1]": {"target": "amyloid-β 1-42 fibers (fAβ42) (human) (UniProt P05067)", "sequence (P05067 672-713 limits assumed)": "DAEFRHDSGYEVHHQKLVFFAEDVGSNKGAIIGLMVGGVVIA", "test": "Aβ binding competition assay; ArgC-treated M13 as competitor of Alexa-488 M13"}, "[2]": {"target": "amyloid-β 1-42 fibers (fAβ42) (human) (UniProt P05067)", "test": "Aβ binding competition assay; ArgC-treated M13 as competitor of Alexa-488 M13; fifth bar, label printed [5 FOLD] (the text speaks of 15 fold)"}},
  "data": [
    {"substance": "M13Δg3p (M13 phage with g3p removed by ArgC protease)", "values": [
      {"measurement": "ALEXA LABELED 488 PELLETED", "setting": "[1]", "result": 86.7},
      {"measurement": "ALEXA LABELED 488 PELLETED", "setting": "[2]", "result": 85.9}
    ]}
  ]
}
